Experimental data taken from patent US20090246756A1, “Thermostable polypeptide having polynucleotide kinase activity and/or phosphatase activity” (Prokaria Ehe, priority 2004, published 2009).
Several values for one entry are separate records, joined by “and”; a condition that tells them apart may be missing. Identical values can stand only once. Entries after “also recorded” stand apart in the source; their conditions may differ.

What was measured:
[1] = test system: d(A15)—PO4^− oligomer; experiment: 3′ phosphohydrolase comparison of RM378 and T4 PNK on 3′ phosphorylated oligomer; assay type: biochemical; details: 0.1 mM substrate, 20 units enzyme, pH 6, 2 hours, 37° C. (T4) / 70° C. (RM378)
Method: (§4) Comparison was done between RM378 and T4 PNK using CAMP, 3′TMP and d(A15)—PO4^− oligomer as substrates, all in 0.1 mM concentration with 20 units of the enzymes in 20 μL reaction volumes using potassium acetate buffer pH 6 with both Mg^2+ and Mn^2+ as the divalent cation. The reactions were carried out for 2 hours at 37° C. and 70° C. for T4 and RM378 PNK, respectively.

[2] = 3′ phosphohydrolase assay (phosphate release, Biomol Green) on 3′TMP; assay type: biochemical
Method: (§5) For example, the following assay can be used: in a potassium acetate buffer, pH 6.0, with 5 mM MnCl2, 1 mM DTT, and 10 mM KCl2, the enzyme is incubated (at 0.05 mg enzyme/ml) with substrate, such as 0.1-5 mM 3′-thymidine mono-phosphate (3′-TMP) or cyclic 2′-3′cyclic adenosine mono-phosphate (cAMP), for 30-60 minutes at suitable temperature, for example at 70-75° C. for RM378 kinase. The reaction is then quenched by adding 90 μL of Biomol Green reagent (Biomol Research Laboratories, Plymouth Meeting, Pa.) to 10 μL reaction. The release of phosphate is then measured at A 620 nm in a spectrophotometer and compared to a phosphate standard curve.
(§6) After determination of pH, cation and apparent temperature optimum, the standard phosphohydrolase assay was: Potassium acetate buffer pH 6.0, 5 mM MnCl2, 1 mM DTT, 10 mM KCl2, 0.1-5 mM CAMP and 0.05 mg/ml PNK. Reaction time was 30-60 minutes at 70-75° C. The reaction was quenched by adding 90 μL of Biomol Green reagent (Biomol Research Laboratories, Plymouth Meeting, Pa.) to 10 μL reaction. The release of phosphate was measured at A 620 nm in a Sunrise Absorbance Reader (Tecan Group Ltd, Maennedorf, Switzerland) and compare to a phosphate standard curve.
(§7) The characterization of the phosphohydrolase activity was done using two substrates: 3′-thymidine mono-phosphate (3′TMP) and cyclic 2′-3′cyclic adenosine mono-phosphate (cAMP). Determination of pH optimum was done with MOPS and potassium acetate buffers using 0.1 mM CAMP and 0.05 mg/ml PNK, apparent T optimum was also done under the standard condition by assaying at different temperatures. Protein concentration curve was done with CAMP at pH 6 in K-acetate buffer and different amount of PNK. Substrate concentration curves were done for CAMP and 3′TMP, under the standard conditions using different amount of substrates.
Comparison was done between RM378 and T4 PNK using CAMP, 3′TMP and d(A15)—PO4^− oligomer as substrates, all in 0.1 mM concentration with 20 units of the enzymes in 20 μL reaction volumes using potassium acetate buffer pH 6 with both Mg^2+ and Mn^2+ as the divalent cation. […]

[3] = 5′ kinase reaction, ATP titration; assay type: biochemical; details: Lineweaver-Burk plot
Method: (§1) The standard PNK assay developed by Richardsson (Richardson, C. C. (1965) Proc Natl Acad Sci USA 54, 158-165) that measures conversion of γ-32P-ATP, was used for characterization of the RM378 PNK with some minor modifications. Standard reaction conditions were: 50 mM MOPS buffer pH 8.5, 1 mM DTT, 10 mM MgCl2, 25 μg/ml BSA, 1 mM spermidine and 5% PEG6000, 100 μM ATP (mixture of normal and γ-32P-ATP) and 0.5 mg/ml partial mircococcal nuclease digested calf thymus DNA or 50-100 μM DNA/RNA oligomers, and 0.0001-0.001 mg/ml PNK enzyme, incubated at 70° C. for 15-30 minutes.
(§2) Titration curves for ATP, r(A20) and single stranded d(A20) oligomers were done to calculate Km values and find the maximum velocity of the 5′ kinase reaction. The results are shown for ATP in FIG. 4B and for, r(A20) and d(A20) in FIGS. 4C.

[4] = test system: d(A20); experiment: 5′ kinase reaction, ssDNA oligomer titration and labelling; assay type: biochemical
Method: as §1, §2
(§3) To investigate the completeness of the 5′ kinase reaction, both r(A20) and d(A20) oligos at 20 μM concentration were labeled in a 10 μM ^32P labeled ATP mixture under optimal conditions. […] The RM378 PNK is therefore an excellent enzyme for nucleic acid labeling at elevated temperatures.

[5] = test system: r(A20); experiment: 5′ kinase reaction, RNA oligomer titration and labelling; assay type: biochemical
Method: as §1, §2, §3

[6] = test system: ssDNA oligomer; experiment: Effect of ADP on 5′ kinase, dephosphorylation and phosphate exchange reactions; assay type: biochemical; details: for effect of ADP on 5′ kinase activity: 5′ hydroxylated ssDNA, increasing ADP; for phosphate exchange reaction on 5′ phosphorylated oligomer: independent of ADP concentration, 0 to 1 mM ADP; for effect of ADP on dephosphorylation of 5′ phosphorylated ssDNA: only ADP and 32P-labeled oligomer, no ATP
Method: Effect of ADP was tested on three kind of reactions i) exchange reaction ii) 5′ kinase reaction and iii) dephosphosphorylation. This was done, by titrating different amounts of ADP to reaction mixtures containing i) 10 μM phosphorylated ssDNA oligo 10 μM γ-^32P-ATP, ii) 10 μM 5′ hydroxylated ssDNA oligomer with 10 μM γ-^32P-ATP, and iii) with 5′ ^32P-labeled ssDNA oligomer without ATP.
The effect of addition of ADP to 5′ kinase activity, dephosphorylation, and phosphate exchange was studied in controlled assay with 10:10 μM ATP and oligomer and by titrating the ADP concentration. […] On the other hand, when labelling an already phosphorylated oligomer, the exchange reaction was overall about 5-8% independent of the ADP concentration, from 0 to 1 mM ADP.

[7] = test system: partial mircococcal nuclease digested calf thymus DNA or DNA/RNA oligomers; experiment: 5′ kinase standard PNK assay (conversion of γ-32P-ATP); assay type: biochemical; details: for increase in 5′ kinase activity by PEG6000: 5-10% PEG6000; for 5′ kinase activity with Mn^2+ compared to Mg^2+: divalent cation essential
Method: The 5′-kinase activity may be determined by an appropriate assay such as an assay developed for T4 PNK that measures conversion of ATP labelled with radioactive gamma-phosphate group (Richardson, C. C. (1965) Proc Natl Acad Sci U.S.A. 54, 158-165). The standard assay may be modified according to the requirement of a specific PNK. For example, for RM378 PNK the typical reaction conditions are 50 mM MOPS buffer pH 8.5, 1 mM DTT, 10 mM MgCl2, 25 μg/ml BSA, 1 mM spermidine and 5% PEG6000, 100 μM ATP (mixture of normal and γ-32P-ATP) and 0.5 mg/ml partial micrococcal nuclease digested calf thymus DNA or 50-100 μM DNA/RNA oligomers, and 0.0001-0.001 mg/ml PNK enzyme. The reaction mixture is then incubated at 70° C. for 15-30 minutes.
as §1

[8] = 3′ phosphohydrolase assay (phosphate release, Biomol Green) on CAMP; details: for 3′ phosphohydrolase activity on CAMP, enzyme comparison: 20 units enzyme, pH 6, 2 hours, 37° C. (T4) / 70° C. (RM378)
Method: as §5, §6, §7, §4

[9] = test system: partial mircococcal nuclease digested calf thymus DNA or DNA/RNA oligomers; experiment: 5′ kinase standard PNK assay (conversion of γ-32P-ATP); assay type: biochemical; details: standard assay at different temperatures for one hour

B1: RM378 PNK: novel thermostable polynucleotide kinase (5′-kinase and 3′-phosphatase activity) from the thermophilic bacteriophage RM378, SEQ ID NO: 2 (protein)
chain: MPNFITNIRNSRFKEVLTEMYHCHHESEYHLEGNVLNHTLMVLQVVDKITADHREQTNLSLTALLHDSGKPYTRVVERGRVMFPGHEGVSTYIAPLLLCEVLRDSLITPKDAIQILYGVNYHMLHWKNPNLFMRLFTEMVNYTCLYNFLKKFNQCDLKGRVSTKPQKQEFPVIHYFENTPIGTVERHVYFMIGVPGSGKSTFLQKVGEGAIVSRDEIMMEYAAEIGITGDYNTVFREIHNNPMHKTKVNNRYMNAFRKAVEENEKVFVDATNMSYKSRRRFYNALRRDIAETVGYHYIVMLPDYFTCIERAENREGKSISREVVTDIARSLLLPCREHPNSIDTTIYMSDGHDEHVLRVAW
modifications: Bacteriophage RM378; HDmotif (66)..(67) HD motif is characteristic of HD phophohydrolase family of enzymes
[1]
  3′ phosphohydrolase activity on d(A15)-3′PO4− oligomer, enzyme comparison: no detectable activity on the oligomer
[1]; listed as RM378
  3′ phosphohydrolase activity on d(A15)-3′PO4− oligomer, enzyme comparison: no activity on the oligomer
[2]; 0.1 mM substrate, 20 units enzyme, pH 6, 2 hours, 37° C. (T4) / 70° C. (RM378)
  3′ phosphohydrolase activity on 3′TMP, enzyme comparison: some activity on 3′TMP
[2]; standard conditions, Mn2+
  Vmax of 3′ phosphohydrolase reaction on 3′TMP: 1.5 μmolmg^−1h^−1
[2]; standard conditions, Mn2+, read-out: Km for 3TMP, 3′ phosphohydrolase reaction
  Km: 60 µM
[3]
  Km: 20 µM
[4]; 20 μM d(A20), 10 μM 32P-labeled ATP, 70° C., 30 min
  completeness of 5′ kinase labelling reaction, DNA: the ATP was depleted; also recorded: completely depleted the ATP when using 5 U per reaction
[4]; Example 2
  Vmax of 5′ kinase reaction on d(A20): 220 μmolmg^−1h^−1
[4]; FIG. 6C legend
  Vmax of 5′ kinase activity on DNA: 160 µmol/h/mg
[4]; d(A20) versus r(A20)
  5′ kinase activity on ssDNA compared to RNA: somewhat better activity on ssDNA when compared to RNA
[4]; single stranded d(A20), read-out: Km for DNA, 5′ kinase reaction
  Km: ~1300 nM and 1500 nM
[5]; 20 μM r(A20), 10 μM 32P-labeled ATP, 70° C., 30 min
  completeness of 5′ kinase labelling reaction, RNA: the ATP was depleted; also recorded: completely depleted the ATP when using 5 U per reaction
[5]; Example 2
  Vmax of 5′ kinase reaction on r(A20): 160 μmolmg^−1h^−1
[5]; FIG. 6C legend
  Vmax of 5′ kinase activity on RNA: 220 µmol/h/mg
[5]; r(A20)
  Km: ~1500 nM and 1300 nM
[6]
  effect of ADP on 5′ kinase activity: inhibited as the concentration of ADP increased
  phosphate exchange reaction on 5′ phosphorylated oligomer: 3-8%
  effect of ADP on dephosphorylation of 5′ phosphorylated ssDNA: The dephosphorylation increased as the ADP concentration increased
[6]; listed as PNK
  effect of ADP on 5′ kinase activity: decreased with increasing ADP concentration
  phosphate exchange reaction on 5′ phosphorylated oligomer: 5-8%
  effect of ADP on dephosphorylation of 5′ phosphorylated ssDNA: the level of dephosphorylation increased as the ADP concentration was increased
[6]; 10:10 μM ATP and oligomer
  ADP concentration giving complete inhibition of 5′ kinase activity: 50 µM
[7]
  effect of spermidine on 5′ kinase activity: limited
  increase in 5′ kinase activity by PEG6000: multi-fold
  5′ kinase activity with Mn^2+ compared to Mg^2+: both Mg2+ and Mn2+ work equally well
[7]; listed as PNK
  increase in 5′ kinase activity by PEG6000: 3-4 fold and 4 fold
  5′ kinase activity with Mn^2+ compared to Mg^2+: Activity was similar for Mn^2+ and Mg^2+
[7]; Mg^2+
  Mg^2+ concentration at which maximum 5′ kinase activity was reached: 100 µM
[7]; Mn^2+
  Mn^2+ concentration at which maximum 5′ kinase activity was reached: 10 µM
[7]; Mn^2+ over 100 μM
  effect of Mn^2+ concentration over 100 μM on 5′ kinase reaction: severely inhibited the reaction
[7]; PEG6000 above 5-10%
  effect of PEG6000 at higher concentrations on 5′ kinase reaction: inhibited the 5′ kinase reaction at higher concentrations
[7]; concentrations higher than 10 mM
  effect of NaCl and KCl on PNK activity: steady decrease in activity
[8]
  pH range with >40% 3′ phosphohydrolase activity: 5.5-7.0 pH
  temperature range with good (>50%) 3′ phosphohydrolase activity: 65-80 °C
[8]; 0.1 mM substrate
  3′ phosphohydrolase activity on CAMP, enzyme comparison: much better activity on the CAMP versus 3′-TMP
[8]; 0.1 mM substrate, listed as RM378
  3′ phosphohydrolase activity on CAMP, enzyme comparison: high activity on CAMP
[8]; CAMP as substrate, 1 mM cation
  higher 3′ phosphohydrolase activity with Mn^2+ than Mg^2+: 5-10 fold
[8]; Mg2+ as cation, 0.1 mM substrate
  3′ phosphohydrolase activity in presence of Mg2+, enzyme comparison: little activity in presence of Mg2+
[8]; measured for one hour
  apparent temperature optimum of 3′ phosphohydrolase activity: 75 °C
[8]; potassium acetate pH 4-6 and MOPS pH 6-9, 0.1 mM CAMP, 0.05 mg/ml PNK
  pH optimum of 3′ phosphohydrolase activity: ~6 pH
[8]; read-out: Km for CAMP, 3′ phosphohydrolase reaction, standard conditions, Mn2+
  Km: 700 µM
[8]; standard conditions, Mn2+
  Vmax of 3′ phosphohydrolase reaction on CAMP: 13.5 μmolmg^−1h^−1
[8]; substrate titration, standard assay conditions with Mn2+
  3′ phosphohydrolase activity on CAMP relative to 3′TMP: much more phosphohydrolase activity on CAMP compared to 3′TMP; also recorded: several-fold higher on CAMP than 3′TMP
[9]
  apparent temperature optimum of 5′ kinase activity: 65-70 °C
